Tests used:
[1] = biological target: T1, Human VE-PTP (HPTP-β) containing first eight FN3 repeats with C-terminal His6 tag (Human ½ VE-PTP ECD) (human, UniProt P23467 23-820); test: ELISA: HPTP-β antigen coated on the plate, antibody serially diluted (10,000 to 9.765 ng/mL), goat anti-human HRP (Fc specific), OD 450 nm
T1 construct: Produced in HEK293 cells and purified by the His tag; it was not cut off; also called Human Beta ½ ECD
T1 sequence: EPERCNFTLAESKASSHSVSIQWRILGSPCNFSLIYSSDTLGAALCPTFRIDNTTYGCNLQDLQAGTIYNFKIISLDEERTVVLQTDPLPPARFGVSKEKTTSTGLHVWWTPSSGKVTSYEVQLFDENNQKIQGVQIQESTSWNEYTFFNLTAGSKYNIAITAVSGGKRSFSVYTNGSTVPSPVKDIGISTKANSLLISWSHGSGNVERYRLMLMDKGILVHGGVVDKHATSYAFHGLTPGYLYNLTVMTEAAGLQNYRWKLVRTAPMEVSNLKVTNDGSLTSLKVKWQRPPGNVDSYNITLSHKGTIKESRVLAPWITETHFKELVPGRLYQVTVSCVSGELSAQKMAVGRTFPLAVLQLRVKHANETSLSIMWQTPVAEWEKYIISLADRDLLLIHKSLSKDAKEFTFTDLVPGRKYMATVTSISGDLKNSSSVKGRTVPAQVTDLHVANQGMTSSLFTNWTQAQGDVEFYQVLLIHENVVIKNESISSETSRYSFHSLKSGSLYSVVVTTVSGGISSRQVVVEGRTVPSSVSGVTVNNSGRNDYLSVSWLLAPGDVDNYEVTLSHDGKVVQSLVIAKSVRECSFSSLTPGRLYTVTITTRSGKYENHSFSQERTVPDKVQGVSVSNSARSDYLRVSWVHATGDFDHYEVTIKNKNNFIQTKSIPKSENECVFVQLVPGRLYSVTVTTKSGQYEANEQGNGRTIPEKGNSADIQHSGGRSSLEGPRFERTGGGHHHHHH
Experimental: (§1) Each humanized variant was measured for affinity to the antigen, human VE-PTP (HPTP-β), using ELISA. […] of the VE-PTP (HPTP-β) antigen were immobilized onto 96-well Maxisorp plates in coating buffer (0.5 mM NaHCO₃ brought to pH 9.6 by the addition of 0.5 mM Na₂CO₃) overnight at 4° C. The coating buffer was then removed and 200 μL/well of block solution (3% w/v semi-skimmed milk powder, PBS) was added and agitated for 2 hrs at room temperature. The plate was washed four times with PBS-T (1% v/v Tween 20). 100 μL/well was added of purified R15E6 variants serially diluted from 10,000 ng/mL to 9.765 ng/mL in PBS-TB (0.05% v/v Tween 20, 0.5% w/v BSA). Following agitation for 2 hrs at room temperature, the plate was washed 4× with PBS-T. 100 μL/well goat anti-human HRP (Fc specific) at a ratio of 1:60,000 PBS was then added and the plates were incubated for an additional hour with agitation at room temperature. The plate was then washed 6× with PBS-T and once in PBS. Next, 100 μL/well of TMB substrate solution was added and incubated at 37° C. for 10 min. 50 μL 1 M HCl was added per well and the plate immediately read at 450 nm on a Tecan Sunrise plate reader. […] The binding of the HC4 variants was much lower than with the other heavy chains variants compared to HC0LC0 (FIG. 17).

[2] = biological target: T1, Human VE-PTP (HPTP-β) containing first …; test: ELISA, coated antigen, antibody 10,000 to 9.765 ng/mL
Experimental: as §1

[3] = biological target: T1, Human VE-PTP (HPTP-β) containing first …; test: ELISA: HPTP-β antigen coated on the plate, antibody serially diluted, goat anti-human HRP (Fc specific), OD 450 nm
Experimental: as §1

[4] = biological target: T1, Human VE-PTP (HPTP-β) containing first …; test: SPR (Biacore 3000), antibody captured on anti-human IgG, antigen as analyte 100 nM (single concentration)
Experimental: (§2) Samples of each variant were further assessed by Biacore analysis to determine the binding affinity. Antibody binding experiments were performed on Biacore 3000™ at 25° C. Assay buffer: 10 mM HEPES buffer (pH 7.4), 150 mM NaCl, 3 mM EDTA, 0.05% P20 (polyoxyethylenesorbitan). […] Conjugation buffer: 10 mM sodium acetate buffer (pH 5). The flow rate used for capturing the ligand was 5 μL/min. The flow rate for the kinetic analysis was 50 μL/min. Flow cell 1 and […] of the CM5 chip were coated with maximum amounts of goat anti-human IgG. Approximately 150 RU of the test antibody was captured on flow cell 2, 3, and 4 as indicated. The antigen was flowed over the chip. Binding of the antigen to the antibodies was monitored in real time. The KD was determined from the observed kₒₙ and koff values.
A scouting analysis was performed using single analyte concentrations as indicated. At these concentrations, binding can be observed even if the ligand binding is weak. Flow cell 1 response was used for reference subtraction.

[5] = biological target: T1, Human VE-PTP (HPTP-β) containing first …; test: SPR (Biacore 3000), antibody captured on anti-human IgG, antigen as analyte 25-0 nM
Experimental: as §2

B1: humanized R15E6 variant HC1LC1 (antibody, human IgG4 S228P, kappa, V domains shown)
VH: EVQLVESGGGLVQPGGSLKLSCAASGFTFNANAMNWVRQASGKGLEWVGRIRTKSNNYATYYAGSVKDRFTISRDDSKNTAYLQMNSLKTEDTAAYYCVRDYYGSSAWITYWGQGTLVTVSS
VL: DVVMTQSPSFLSASVGDRVTITCKASQHVGTAVAWYQQRPGKAPKLLIYWASTRHTGVPSRFSGSGSGTEFTLTISSLQPEDFATYFCQQYSSYPFTFGGGTKLEIKR
notes: Human IgG4 (S228P) / kappa, expressed in CHO cells; Signal peptides left out by range; also called VH1-VL1
B1: binds [1].

B2: humanized R15E6 variant HC4LC1 (antibody, human IgG4 S228P, kappa, V domains shown)
VH: LVQLVESGGGLVKPGGSLRLSCAASGFTFNANAMNWIRQAPGKGLEWVSRIRTKSNNYATYYAGSVKDRFTISRDNAKNSLYLQMNSLRAEDTAVHYCVRDYYGSSAWITYWGQGTLVTVSS
VL: DVVMTQSPSFLSASVGDRVTITCKASQHVGTAVAWYQQRPGKAPKLLIYWASTRHTGVPSRFSGSGSGTEFTLTISSLQPEDFATYFCQQYSSYPFTFGGGTKLEIKR
notes: Human IgG4 (S228P) / kappa, expressed in CHO cells; Signal peptides left out by range; also called VH4-VL1
B2: binds [2].

B3: humanized R15E6 variant HC4LC2 (antibody, human IgG4 S228P, kappa, V domains shown)
VH: LVQLVESGGGLVKPGGSLRLSCAASGFTFNANAMNWIRQAPGKGLEWVSRIRTKSNNYATYYAGSVKDRFTISRDNAKNSLYLQMNSLRAEDTAVHYCVRDYYGSSAWITYWGQGTLVTVSS
VL: DIVMTQSPDSLAVSLGERATINCKASQHVGTAVAWYQQKPGQPPKLLIYWASTRHTGVPDRFSGSGSGTDFTLTISSLQAEDVAVYYCQQYSSYPFTFGQGTKLEIKR
notes: Human IgG4 (S228P) / kappa, expressed in CHO cells; Signal peptides left out by range; also called VH4-VL2
B3: binds [2].

B4: humanized R15E6 variant HC1LC3 (antibody, human IgG4 S228P, kappa, V domains shown)
VH: EVQLVESGGGLVQPGGSLKLSCAASGFTFNANAMNWVRQASGKGLEWVGRIRTKSNNYATYYAGSVKDRFTISRDDSKNTAYLQMNSLKTEDTAAYYCVRDYYGSSAWITYWGQGTLVTVSS
VL: DIQMTQSPFSLSASVGDRVTITCKASQHVGTAVAWYQQKPGKAPKLLIYWASTRHTGVPSRFSGSGSGTDFTLTISSLQPEDFATYFCQQYSSYPFTFGGGTKLEIKR
notes: Human IgG4 (S228P) / kappa, expressed in CHO cells; Signal peptides left out by range; also called VH1-VL3
B4: binds [1].

B5: humanized R15E6 variant HC3LC1 (antibody, human IgG4 S228P, kappa, V domains shown)
VH: EVQLVESGGGLVQPGRSLRLSCTASGFTFNANAMNWVRQAPGKGLEWVGRIRTKSNNYATYYAGSVKDRFTISRDDSKNIAYLQMNSLKTEDTAVYYCVRDYYGSSAWITYWGQGTLVTVSS
VL: DVVMTQSPSFLSASVGDRVTITCKASQHVGTAVAWYQQRPGKAPKLLIYWASTRHTGVPSRFSGSGSGTEFTLTISSLQPEDFATYFCQQYSSYPFTFGGGTKLEIKR
notes: Human IgG4 (S228P) / kappa, expressed in CHO cells; Signal peptides left out by range; also called VH3-VL1
B5: binds [3].

B6: humanized R15E6 variant HC3LC2 (antibody, human IgG4 S228P, kappa, V domains shown)
VH: EVQLVESGGGLVQPGRSLRLSCTASGFTFNANAMNWVRQAPGKGLEWVGRIRTKSNNYATYYAGSVKDRFTISRDDSKNIAYLQMNSLKTEDTAVYYCVRDYYGSSAWITYWGQGTLVTVSS
VL: DIVMTQSPDSLAVSLGERATINCKASQHVGTAVAWYQQKPGQPPKLLIYWASTRHTGVPDRFSGSGSGTDFTLTISSLQAEDVAVYYCQQYSSYPFTFGQGTKLEIKR
notes: Human IgG4 (S228P) / kappa, expressed in CHO cells; Signal peptides left out by range; also called VH3-VL2
Binder B6 has a Ka [4] of 2.06e+08 M⁻¹, a Kd [4] of 4.84 nM and a koff [4] of 0.000993 s⁻¹. The kon [4] was 205000 M⁻¹ s⁻¹, the Ka [5] was 4.3e+07 M⁻¹ and the Kd [5] was 23.2 nM. It also gave a koff [5] of 0.00123 s⁻¹ and a kon [5] of 53900 M⁻¹ s⁻¹.

B7: humanized R15E6 variant HC3LC3 (antibody, human IgG4 S228P, kappa, V domains shown)
VH: EVQLVESGGGLVQPGRSLRLSCTASGFTFNANAMNWVRQAPGKGLEWVGRIRTKSNNYATYYAGSVKDRFTISRDDSKNIAYLQMNSLKTEDTAVYYCVRDYYGSSAWITYWGQGTLVTVSS
VL: DIQMTQSPFSLSASVGDRVTITCKASQHVGTAVAWYQQKPGKAPKLLIYWASTRHTGVPSRFSGSGSGTDFTLTISSLQPEDFATYFCQQYSSYPFTFGGGTKLEIKR
notes: Human IgG4 (S228P) / kappa, expressed in CHO cells; Signal peptides left out by range; also called VH3-VL3
B7: binds [3].

B8: humanized R15E6 variant HC4LC4 (antibody, human IgG4 S228P, kappa, V domains shown)
VH: LVQLVESGGGLVKPGGSLRLSCAASGFTFNANAMNWIRQAPGKGLEWVSRIRTKSNNYATYYAGSVKDRFTISRDNAKNSLYLQMNSLRAEDTAVHYCVRDYYGSSAWITYWGQGTLVTVSS
VL: DIVMTQSPDSLAVSLGERATINCKASQHVGTAVAWYQQKPEQPPKLLIYWASTRHTGVPDRFSGSGSGTDFTLTISSLQAEDVAVYYCQQYSSYPFTFGGGTKVEIKR
notes: Human IgG4 (S228P) / kappa, expressed in CHO cells; Signal peptides left out by range; also called VH4-VL4
B8: binds [2].

From patent US20190077863A1 (AERPIO PHARMACEUTICALS, published 2019)
